Laboratory results taken from publication PMC9392322, “Modulation of macrophage inflammatory function through selective inhibition of the epigenetic reader protein SP140” (BMC Biology, 2022).
Ends that are not written are not given here. Me3 = trimethyl (trimethyl-lysine)

B1: biotinylated H3 (1-9) (peptide)
peptide: ARTKQTARK
modifications: also: biotin, position not given here
notes: histone H3, residues 1-9; numbers count on: the protein without the initiator methionine; source: bought: Anaspec library
B2: unmodified H3_(1-19) peptide (histone peptide array) (peptide)
peptide: ARTKQTARKSTGGKAPRKQ
notes: histone H3, residues 1-19; numbers count on: the protein without the initiator methionine; Spotted on the array slide; source: bought: Active Motif modified histone peptide array
B3: biotinylated H3(+YCK) (1-18 +YCK) (peptide)
peptide: ARTKQTARKSTGGKAPRKYCK
modifications: also: biotin, position not given here
notes: histone H3, residues 1-18; numbers count on: the protein without the initiator methionine; added residues, printed as '+YCK' after 1-18; also called H3_(1-18); source: bought: Anaspec library
B4: H3K4(3Me) (1-10) (peptide)
peptide: ARTK(Me3)QTARKS
notes: histone H3, residues 1-10; numbers count on: the protein without the initiator methionine; source: bought: Anaspec library

Columns and labels:
SP140 = target: T1, SP140 (Homo sapiens, UniProt Q13342); test: fluorescence polarization competition against GSK064; type: binding
T1 construct: 6HisFLAGTEVSP140 (687-867), PHD-Brd
T1 sequence (Q13342 687-867): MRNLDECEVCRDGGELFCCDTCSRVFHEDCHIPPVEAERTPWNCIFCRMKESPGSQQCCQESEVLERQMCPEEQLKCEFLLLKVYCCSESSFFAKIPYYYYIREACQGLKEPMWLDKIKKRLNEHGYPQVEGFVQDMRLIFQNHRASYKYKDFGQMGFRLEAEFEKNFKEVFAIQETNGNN

[1] = target: T2, 6His-Flag-Tev-SP140-PHD-Brd (687-867) (human, UniProt Q13342 687-867); test: fluorescence polarisation; competition: H3 peptides serially diluted, displacing 10 nM GSK306 (FAM-labelled GSK761) from 80 nM 6His…140 (687-867); 50 mM HEPES pH 7.5, 50 mM NaCl, 1 mM CHAPS, 1 mM DTT; 30 min; conditions: both partners purified
T2 construct: SP140 (Speckled 140 kDa), construct spanning the PHD and Brd domains, aa 687-867; also called SP140 (aa 687-867); source: recombinant protein; not shown: His6, N-terminal, kept; FLAG, N-terminal, kept
T2 sequence (Q13342 687-867): as above

[2] = target: T2, 6His-Flag-Tev-SP140-PHD-Brd (687-867); test: peptide or protein array; Active Motif modified histone peptide array, peptides on the slide; blocked with 3% BSA; 10 mg/mL 6His-Flag-Tev-SP140-PHD-Brd (687-867) in solution; detected with anti-6His antibody and anti-rabbit IgG HRP; in duplicate; conditions: both partners purified

Molecule | IC50 [1] [µM] | also measured
Cn1c(-c2ccc(C(=O)Nc3cccc(CCOC(C)(C)C)c3)cc2)nc2cc(C(=O)Nc3cccc(CCOC(C)(C)C)c3)ccc21 [GSK761] |  | IC50 (SP140): 0.0778 ± 0.00827 µM
B1 | 2.83 | 
B2 |  | binding result [2]: binds
B3 | 0.27 | 
B4 | 12.5 | 
